Measurements published in the supplement of paper PMC9112550, “Optimization of the antimicrobial peptide Bac7 by deep mutational scanning” (BMC Biology, 2022).

test system: Escherichia coli TOP10; assay: shrunken log2 fold change of peptide-encoding DNA abundance (4.5 h post-induction vs induction); higher = less antimicrobial activity (less host growth inhibition); conditions: time post-induction: 4.5 h; library: site-saturation at positions 5, 18, 19, 20
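Also: peptides expressed intracellularly from a pBAD plasmid library in pooled LB shake-flask culture, induced with 0.3% L-arabinose, DNA abundance read by NGS, three biological replicates, DESeq2 with apeglm shrinkage.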

Sequence | shrunken log2 fold change
RRIRSRPPRLPRPRPRPYKVPRP | -0.0179
RRIRSRPPRLPRPRPRPYLCPRP | -0.627
RRIRSRPPRLPRPRPRPYLPPRP | -0.552
RRIRSRPPRLPRPRPRPYNNPRP | -0.785
RRIRSRPPRLPRPRPRPYNTPRP | -1.1
RRIRSRPPRLPRPRPRPYRPPRP | -0.365
RRIRSRPPRLPRPRPRPYSPPRP | -0.839
RRIRSRPPRLPRPRPRPYVHPRP | -0.175
RRIRSRPPRLPRPRPRPYWGPRP | -0.0576
RRIRSRPPRLPRPRPRPYWSPRP | -0.414
RRIRSRPPRLPRPRPRPYYCPRP | 2.2
RRIRSRPPRLPRPRPRPYYMPRP | -0.622
RRIRSRPPRLPRPRPRPYYSPRP | -0.318
RRIRSRPPRLPRPRPRPYYTPRP | -0.576
RRIRTRPPRLPRPRPRPAAAPRP | 0.618
RRIRTRPPRLPRPRPRPAAVPRP | -0.0116
RRIRTRPPRLPRPRPRPACCPRP | 0.263
RRIRTRPPRLPRPRPRPADHPRP | -0.0507
RRIRTRPPRLPRPRPRPADNPRP | -0.294
RRIRTRPPRLPRPRPRPAEIPRP | 0.083
RRIRTRPPRLPRPRPRPAFDPRP | 0.161
RRIRTRPPRLPRPRPRPAGMPRP | 0.0244
RRIRTRPPRLPRPRPRPAGNPRP | 0.00723
RRIRTRPPRLPRPRPRPAGRPRP | 0.352
RRIRTRPPRLPRPRPRPAHGPRP | 0.00693

Sequence | shrunken log2 fold change
RRIRTRPPRLPRPRPRPAHRPRP | 0.0856
RRIRTRPPRLPRPRPRPAKMPRP | -0.0252
RRIRTRPPRLPRPRPRPALGPRP | 0.898
RRIRTRPPRLPRPRPRPALLPRP | 0.226
RRIRTRPPRLPRPRPRPALYPRP | 0.0598
RRIRTRPPRLPRPRPRPAMFPRP | -0.686
RRIRTRPPRLPRPRPRPAMYPRP | -0.106
RRIRTRPPRLPRPRPRPANNPRP | -0.736
RRIRTRPPRLPRPRPRPANWPRP | 0.0703
RRIRTRPPRLPRPRPRPASGPRP | 0.614
RRIRTRPPRLPRPRPRPASRPRP | 0.279
RRIRTRPPRLPRPRPRPAVAPRP | 0.422
RRIRTRPPRLPRPRPRPAVWPRP | 0.556
RRIRTRPPRLPRPRPRPAWAPRP | 1.53
RRIRTRPPRLPRPRPRPAWMPRP | 0.307
RRIRTRPPRLPRPRPRPAWSPRP | 0.358
RRIRTRPPRLPRPRPRPAYLPRP | -0.0925
RRIRTRPPRLPRPRPRPAYYPRP | 0.0141
RRIRTRPPRLPRPRPRPCADPRP | -0.0062
RRIRTRPPRLPRPRPRPCAEPRP | -0.11
RRIRTRPPRLPRPRPRPCAIPRP | 0.00368
RRIRTRPPRLPRPRPRPCAWPRP | -0.277
RRIRTRPPRLPRPRPRPCCHPRP | -0.0132
RRIRTRPPRLPRPRPRPCDMPRP | -0.729
RRIRTRPPRLPRPRPRPCEAPRP | 0.114

Sequence | shrunken log2 fold change
RRIRTRPPRLPRPRPRPCFLPRP | -0.535
RRIRTRPPRLPRPRPRPCFTPRP | -0.358
RRIRTRPPRLPRPRPRPCGEPRP | -0.23
RRIRTRPPRLPRPRPRPCHGPRP | -0.0399
RRIRTRPPRLPRPRPRPCHQPRP | -0.172
RRIRTRPPRLPRPRPRPCIDPRP | -0.519
RRIRTRPPRLPRPRPRPCIVPRP | -0.164
RRIRTRPPRLPRPRPRPCMGPRP | -0.247
RRIRTRPPRLPRPRPRPCMSPRP | -0.196
RRIRTRPPRLPRPRPRPCMTPRP | -0.111
RRIRTRPPRLPRPRPRPCMYPRP | -0.183
RRIRTRPPRLPRPRPRPCNKPRP | -0.121
RRIRTRPPRLPRPRPRPCNSPRP | -0.0206
RRIRTRPPRLPRPRPRPCPLPRP | -0.325
RRIRTRPPRLPRPRPRPCPVPRP | -0.175
RRIRTRPPRLPRPRPRPCRAPRP | -0.0539
RRIRTRPPRLPRPRPRPCTLPRP | -0.314
RRIRTRPPRLPRPRPRPCTQPRP | -0.123
RRIRTRPPRLPRPRPRPCVFPRP | -0.215
RRIRTRPPRLPRPRPRPCVIPRP | -0.029
RRIRTRPPRLPRPRPRPCYVPRP | -0.89
RRIRTRPPRLPRPRPRPDADPRP | 0.0357
RRIRTRPPRLPRPRPRPDASPRP | 0.0856
RRIRTRPPRLPRPRPRPDCCPRP | 0.135
RRIRTRPPRLPRPRPRPDCGPRP | 0.759

Sequence | shrunken log2 fold change
RRIRTRPPRLPRPRPRPDDAPRP | -0.0135
RRIRTRPPRLPRPRPRPDDSPRP | -1.36
RRIRTRPPRLPRPRPRPDEPPRP | -0.105
RRIRTRPPRLPRPRPRPDFDPRP | -0.375
RRIRTRPPRLPRPRPRPDFYPRP | -0.241
RRIRTRPPRLPRPRPRPDGRPRP | -0.0138
RRIRTRPPRLPRPRPRPDGYPRP | -0.0637
RRIRTRPPRLPRPRPRPDHIPRP | -0.242
RRIRTRPPRLPRPRPRPDHPPRP | -0.224
RRIRTRPPRLPRPRPRPDINPRP | -0.151
RRIRTRPPRLPRPRPRPDISPRP | -0.038
RRIRTRPPRLPRPRPRPDKKPRP | -0.0143
RRIRTRPPRLPRPRPRPDNKPRP | -0.272
RRIRTRPPRLPRPRPRPDPFPRP | -0.0199
RRIRTRPPRLPRPRPRPDPQPRP | -0.0945
RRIRTRPPRLPRPRPRPDQTPRP | -0.0468
RRIRTRPPRLPRPRPRPDSHPRP | -0.153
RRIRTRPPRLPRPRPRPDSLPRP | -0.153
RRIRTRPPRLPRPRPRPDTAPRP | 0.0677
RRIRTRPPRLPRPRPRPDTEPRP | -0.072
RRIRTRPPRLPRPRPRPDTFPRP | 0.0276
RRIRTRPPRLPRPRPRPDTKPRP | -0.212
RRIRTRPPRLPRPRPRPDVCPRP | 0.11
RRIRTRPPRLPRPRPRPDWFPRP | -0.112
RRIRTRPPRLPRPRPRPEALPRP | 0.0496

Sequence | shrunken log2 fold change
RRIRTRPPRLPRPRPRPECMPRP | 0.378
RRIRTRPPRLPRPRPRPECQPRP | 0.0443
RRIRTRPPRLPRPRPRPEETPRP | 0.0325
RRIRTRPPRLPRPRPRPEEVPRP | -0.0075
RRIRTRPPRLPRPRPRPEFYPRP | -0.212
RRIRTRPPRLPRPRPRPEGHPRP | 0.0274
RRIRTRPPRLPRPRPRPEGKPRP | 0.0733
RRIRTRPPRLPRPRPRPEHMPRP | -0.0375
RRIRTRPPRLPRPRPRPEICPRP | -0.0438
RRIRTRPPRLPRPRPRPEILPRP | 0.0249
RRIRTRPPRLPRPRPRPEISPRP | 0.00497
RRIRTRPPRLPRPRPRPEIWPRP | 0.264
RRIRTRPPRLPRPRPRPELHPRP | 0.396
RRIRTRPPRLPRPRPRPELTPRP | 0.0104
RRIRTRPPRLPRPRPRPENQPRP | 0.0593
RRIRTRPPRLPRPRPRPENWPRP | 0.157
RRIRTRPPRLPRPRPRPERWPRP | 0.354
RRIRTRPPRLPRPRPRPETPPRP | 0.493
RRIRTRPPRLPRPRPRPEVGPRP | 0.0668
RRIRTRPPRLPRPRPRPEVIPRP | -0.0149
RRIRTRPPRLPRPRPRPEVMPRP | 0.114
RRIRTRPPRLPRPRPRPEVTPRP | -0.00738
RRIRTRPPRLPRPRPRPEWRPRP | 0.338
RRIRTRPPRLPRPRPRPEWYPRP | 0.135
RRIRTRPPRLPRPRPRPEYCPRP | -0.189

Sequence | shrunken log2 fold change
RRIRTRPPRLPRPRPRPEYGPRP | -0.0673
RRIRTRPPRLPRPRPRPEYPPRP | -0.449
RRIRTRPPRLPRPRPRPFAAPRP | 0.08
RRIRTRPPRLPRPRPRPFAEPRP | 0.0116
RRIRTRPPRLPRPRPRPFAKPRP | -0.0867
RRIRTRPPRLPRPRPRPFCDPRP | -0.268
RRIRTRPPRLPRPRPRPFCFPRP | -0.134
RRIRTRPPRLPRPRPRPFCLPRP | -0.278
RRIRTRPPRLPRPRPRPFDFPRP | -0.271
RRIRTRPPRLPRPRPRPFERPRP | -0.0347
RRIRTRPPRLPRPRPRPFFDPRP | -0.429
RRIRTRPPRLPRPRPRPFFNPRP | -0.582
RRIRTRPPRLPRPRPRPFKHPRP | -0.126
RRIRTRPPRLPRPRPRPFLWPRP | 0.189
RRIRTRPPRLPRPRPRPFMQPRP | -0.0497
RRIRTRPPRLPRPRPRPFMWPRP | -0.119
RRIRTRPPRLPRPRPRPFNAPRP | -0.344
RRIRTRPPRLPRPRPRPFNDPRP | -0.136
RRIRTRPPRLPRPRPRPFNSPRP | -0.127
RRIRTRPPRLPRPRPRPFQAPRP | -0.0372
RRIRTRPPRLPRPRPRPFQFPRP | -0.131
RRIRTRPPRLPRPRPRPFQPPRP | 0.0737
RRIRTRPPRLPRPRPRPFQTPRP | 0.0582
RRIRTRPPRLPRPRPRPFSCPRP | -0.0158
RRIRTRPPRLPRPRPRPFSYPRP | -0.0874
